# B1: g7B07-mIgG1 (antibody, V domains shown)
# VH: EVQLLESGGGLVQPGGSLRLSCAASGFTFRSYDMSWVRQAPGKGLEWVSAIKNGGGITYYADSVKGRFTISRDNSKNTLYLQMNSLRAEDTAVYYCATTHGIGTLGFGSWGQGTLVTVSS
# VL: SYELTQPLSVSVALGQTARITCDGNNIGSKSAQWYQQKPGQAPVLVIYADEYRPEGIPERFSGSNSGNTATLTISRAQAGDEADYYCQVWDGSAAVFGGGTQLTVL
# Biological target: cynomolgus Gal10-His (WGS isoform) (cynomolgus)
# Assay: SPR Biacore 3000 on cynomolgus Gal10 (WGS isoform)
binder,measurement,value
B1,Kd,1.5 nM
